The text below walks through data of patent US20150265516A1 (Merck KGaA, published 2015).

Test [1] concerns the target T1, recombinant human integrin αvβ3 (human, UniProt P06756 31-992; P05106 27-718).
T1 construct: also called recombinant human αvβ3 integrin; avβ3
The test is described as follows: ligand inhibition ELISA: immobilized recombinant human αvβ3, competitor ligand biotinylated human serum vitronectin.

The target of test [2] is T1, recombinant human integrin αvβ3. As to the kind of experiment: isolated integrin binding assay: adsorbed recombinant human αvβ3, competitor ligand biotinylated human plasma vitronectin. The method, then: After 3 hours at 37° C., bound ligand is detected using alkaline-phosphatase labelled anti-biotin MAbs (Sigma, St. Louis, Mo.).
Test [3] deals with T2, purified human integrin αvβ3 from term placenta (human, UniProt P06756 31-1048; P05106 27-788).
T2 construct: mature; also called human placental αvβ3; vitronectin receptor avβ3
T2 sequence (P06756 31-1048, form in doubt, chain 1 of 2): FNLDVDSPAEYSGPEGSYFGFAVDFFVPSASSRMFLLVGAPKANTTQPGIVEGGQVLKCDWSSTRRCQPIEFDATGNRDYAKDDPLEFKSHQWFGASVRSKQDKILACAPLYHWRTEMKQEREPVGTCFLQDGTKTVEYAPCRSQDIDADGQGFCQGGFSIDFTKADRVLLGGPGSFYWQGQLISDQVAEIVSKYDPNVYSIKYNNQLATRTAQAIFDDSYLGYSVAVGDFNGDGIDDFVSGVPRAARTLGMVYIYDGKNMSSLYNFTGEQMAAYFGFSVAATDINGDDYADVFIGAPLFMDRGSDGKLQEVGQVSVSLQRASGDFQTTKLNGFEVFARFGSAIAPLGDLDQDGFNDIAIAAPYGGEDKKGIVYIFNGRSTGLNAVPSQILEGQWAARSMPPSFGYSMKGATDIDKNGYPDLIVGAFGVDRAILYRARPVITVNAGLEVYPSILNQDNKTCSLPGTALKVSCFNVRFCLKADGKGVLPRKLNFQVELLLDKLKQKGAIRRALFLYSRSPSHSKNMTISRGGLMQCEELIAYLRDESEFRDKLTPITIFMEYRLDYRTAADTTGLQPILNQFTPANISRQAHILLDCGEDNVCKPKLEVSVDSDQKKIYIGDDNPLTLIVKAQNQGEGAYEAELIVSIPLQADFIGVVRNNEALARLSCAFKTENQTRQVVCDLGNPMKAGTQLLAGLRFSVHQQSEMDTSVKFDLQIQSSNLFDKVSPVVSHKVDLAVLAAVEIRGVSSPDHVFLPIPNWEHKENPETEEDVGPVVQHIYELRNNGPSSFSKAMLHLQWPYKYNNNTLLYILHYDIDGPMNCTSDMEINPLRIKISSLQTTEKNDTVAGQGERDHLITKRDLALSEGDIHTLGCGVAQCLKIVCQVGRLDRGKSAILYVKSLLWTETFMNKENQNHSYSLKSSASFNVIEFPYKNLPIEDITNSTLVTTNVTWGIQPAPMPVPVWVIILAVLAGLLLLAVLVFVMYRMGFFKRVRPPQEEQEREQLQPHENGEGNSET
T2 sequence (P05106 27-788, form in doubt, chain 2 of 2): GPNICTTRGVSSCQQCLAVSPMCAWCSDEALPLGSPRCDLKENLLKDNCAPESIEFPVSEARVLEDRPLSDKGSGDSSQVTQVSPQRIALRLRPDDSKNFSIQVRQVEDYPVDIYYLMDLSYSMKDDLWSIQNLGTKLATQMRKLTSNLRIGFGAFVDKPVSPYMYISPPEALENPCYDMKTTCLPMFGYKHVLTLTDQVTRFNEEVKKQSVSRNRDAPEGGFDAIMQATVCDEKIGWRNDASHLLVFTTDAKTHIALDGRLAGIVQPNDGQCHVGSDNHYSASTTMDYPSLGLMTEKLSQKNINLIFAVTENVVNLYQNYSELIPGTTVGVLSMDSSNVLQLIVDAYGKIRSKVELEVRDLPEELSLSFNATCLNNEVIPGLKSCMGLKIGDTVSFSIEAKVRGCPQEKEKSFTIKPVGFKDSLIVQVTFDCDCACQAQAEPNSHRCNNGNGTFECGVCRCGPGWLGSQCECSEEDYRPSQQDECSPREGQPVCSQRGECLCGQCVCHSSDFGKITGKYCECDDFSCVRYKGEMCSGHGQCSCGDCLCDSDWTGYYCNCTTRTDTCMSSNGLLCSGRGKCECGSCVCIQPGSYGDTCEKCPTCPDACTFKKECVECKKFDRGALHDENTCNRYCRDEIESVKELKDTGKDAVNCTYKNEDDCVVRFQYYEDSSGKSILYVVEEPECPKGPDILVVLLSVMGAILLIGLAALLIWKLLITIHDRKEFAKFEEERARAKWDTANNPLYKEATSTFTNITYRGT
The test is described as follows: receptor inhibition assay: coated placental αvβ3, competitor ligand biotinylated vitronectin. How it is done:
Method: 1 μg ml⁻¹ biotin-ligand is incubated with 1 μg ml⁻¹ coated receptor in the presence of serially diluted peptides. After 3 h at 30° C. bound ligand was measures by anti-biotin—alkaline phosphatase detection.

In test [4] the target is T2, purified human integrin αvβ3 from term …. The test is described as follows: solid-phase inhibition assay: immobilized placental αvβ3, competitor ligand vitronectin.

Starred links: 1 amine or outer side, 2 acyl side, 3 side chain; linkers in the order of their positions; H or OH if unused. Non-standard residues stand in square brackets, D forms with d. Primed or numbered codes have the meaning given here. No end group written: not given here. Nhdg = N-hexadecylglycine, CCCCCCCCCCCCCCCCN(CC(=O)[*:2])[*:1]; Aib′ = 3-aminoisobutyric acid (as defined by the filing); Ac6c = NC1(C(=O)O)CCCCC1; NMeA = CN[C@@H](C)C(=O)O; Ac5c = NC1(C(=O)O)CCCC1

T1 sequence (P06756 31-992, chain 1 of 2): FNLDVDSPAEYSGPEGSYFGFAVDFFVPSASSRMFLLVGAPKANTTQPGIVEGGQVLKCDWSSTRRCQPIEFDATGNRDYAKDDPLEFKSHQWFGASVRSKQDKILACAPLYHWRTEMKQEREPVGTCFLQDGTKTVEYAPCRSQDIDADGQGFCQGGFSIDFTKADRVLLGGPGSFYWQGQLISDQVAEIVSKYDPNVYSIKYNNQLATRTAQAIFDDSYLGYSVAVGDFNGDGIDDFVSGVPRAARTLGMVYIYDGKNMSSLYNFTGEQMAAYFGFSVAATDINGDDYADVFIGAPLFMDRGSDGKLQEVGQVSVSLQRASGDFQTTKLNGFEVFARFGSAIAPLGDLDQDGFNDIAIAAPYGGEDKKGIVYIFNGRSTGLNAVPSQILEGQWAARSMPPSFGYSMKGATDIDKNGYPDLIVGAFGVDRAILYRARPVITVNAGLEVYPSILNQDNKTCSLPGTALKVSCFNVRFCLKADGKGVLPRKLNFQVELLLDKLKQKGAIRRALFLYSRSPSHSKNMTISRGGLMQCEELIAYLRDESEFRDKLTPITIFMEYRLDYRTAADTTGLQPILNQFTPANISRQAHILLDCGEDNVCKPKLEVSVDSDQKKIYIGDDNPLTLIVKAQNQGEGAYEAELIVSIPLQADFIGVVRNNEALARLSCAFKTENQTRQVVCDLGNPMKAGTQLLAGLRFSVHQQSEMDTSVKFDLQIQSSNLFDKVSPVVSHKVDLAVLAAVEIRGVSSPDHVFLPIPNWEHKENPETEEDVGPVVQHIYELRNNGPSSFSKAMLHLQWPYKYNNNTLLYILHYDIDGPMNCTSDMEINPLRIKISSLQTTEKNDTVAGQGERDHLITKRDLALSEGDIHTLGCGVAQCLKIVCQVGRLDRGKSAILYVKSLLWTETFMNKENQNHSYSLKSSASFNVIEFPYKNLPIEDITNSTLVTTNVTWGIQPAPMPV
T1 sequence (P05106 27-718, chain 2 of 2): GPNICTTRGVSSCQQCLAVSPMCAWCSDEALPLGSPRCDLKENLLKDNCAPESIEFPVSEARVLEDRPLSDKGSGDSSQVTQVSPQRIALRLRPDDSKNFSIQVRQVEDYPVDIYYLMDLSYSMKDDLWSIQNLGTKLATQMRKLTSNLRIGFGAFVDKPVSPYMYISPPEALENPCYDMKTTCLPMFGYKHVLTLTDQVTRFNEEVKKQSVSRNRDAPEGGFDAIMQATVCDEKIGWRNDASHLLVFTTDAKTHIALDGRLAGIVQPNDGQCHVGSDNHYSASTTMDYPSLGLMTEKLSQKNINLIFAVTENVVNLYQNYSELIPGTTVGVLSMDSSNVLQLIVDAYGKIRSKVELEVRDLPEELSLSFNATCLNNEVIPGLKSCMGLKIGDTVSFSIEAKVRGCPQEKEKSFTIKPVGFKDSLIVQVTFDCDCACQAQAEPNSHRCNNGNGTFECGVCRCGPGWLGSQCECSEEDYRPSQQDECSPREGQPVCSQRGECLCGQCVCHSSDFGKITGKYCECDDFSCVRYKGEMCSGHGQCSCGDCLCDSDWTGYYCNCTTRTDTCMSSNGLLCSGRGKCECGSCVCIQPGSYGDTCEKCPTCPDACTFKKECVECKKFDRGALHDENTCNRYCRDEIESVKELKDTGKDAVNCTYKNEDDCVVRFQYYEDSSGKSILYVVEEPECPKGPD

B1: Cyclo-(Arg-Gly-Asp-DPhe-(NMe)Ala) (peptide)
peptide: cyclo(RGD[dF][NMeA])
SMILES: C[C@H]1C(=O)N[C@@H](CCCNC(=N)N)C(=O)NCC(=O)N[C@@H](CC(=O)O)C(=O)N[C@H](Cc2ccccc2)C(=O)N1C
With B1, the IC50 (as a rule, the concentration needed to halve the response being measured) in test [1] came to 24 nM.

B2: Gly-Arg-Gly-Asp-Ser-Pro-Lys-OH (peptide)
peptide: GRGDSPK-OH
notes: Linear peptide with free C-terminus; also called GRGDSPK peptide
Take B2: the IC50 in test [2] stood at 120 nM.

Consider cyclo(RGD[dF][Aib′]) (X = non-natural residue Aib) [Cyclo-(Arg-Gly-Asp-DPhe-Aib)], for which the IC50 in test [3] was 20 nM.

Turning to cyclo(RGD[dF]X) (not fully specified (residue 5); printed as Cyclo-(Arg-Gly-Asp-DPhe-hPro), X = non-natural residue hPro) [Cyclo-(Arg-Gly-Asp-DPhe-hPro)], the IC50 in test [3] worked out at 170 nM.

cyclo(RGD[dF][Ac5c]) (X = non-natural residue Acpa) [Cyclo-(Arg-Gly-Asp-DPhe-Acpa)] came in with an IC50 in test [3] of 9 nM.

In turn, RGDFG (head-to-tail cyclic (homodetic)) [Cyclo(Arg-Gly-Asp-Phe-Gly)] had a half-maximal inhibitory concentration (IC50) in test [3] of 400 nM.

B3: Cyclo-(Arg-Gly-Asp-Phe-Nhdg) (peptide)
peptide: cyclo(RGDF[Nhdg])
SMILES: CCCCCCCCCCCCCCCCN1CC(=O)N[C@@H](CCCNC(=N)N)C(=O)NCC(=O)N[C@@H](CC(=O)O)C(=O)N[C@@H](Cc2ccccc2)C1=O
notes: Phe at 4 is printed without D; residue 5 is glycine carrying an N-hexadecyl group
For the molecule B3, in test [3], the half-maximal inhibitory concentration (IC50) was 8 nM.

B4: Cyclo-(Arg-Ala-Asp-DPhe-Val) (peptide)
peptide: cyclo(RAD[dF]V)
SMILES: CC(C)[C@@H]1NC(=O)[C@@H](Cc2ccccc2)NC(=O)[C@H](CC(=O)O)NC(=O)[C@H](C)NC(=O)[C@H](CCCNC(=N)N)NC1=O
notes: also called cyclo(RADfV)
B4 came in with an IC50 in test [4] of 4000 nM.

B5: Cyclo-(Arg-Gly-Asp-DPhe-Acha) (peptide)
peptide: cyclo(RGD[dF][Ac6c])
SMILES: N=C(N)NCCC[C@@H]1NC(=O)C2(CCCCC2)NC(=O)[C@@H](Cc2ccccc2)NC(=O)[C@H](CC(=O)O)NC(=O)CNC1=O
notes: X = non-natural residue Acha; also called CPPC 1; Cyclopeptide
As to B5, the IC50 in test [3] is 2 nM; in test [2], 2.1 nM.
